Data taken from the domain aggregation screens of Martell et al. (2025).

Experiment: soluble fraction after stress (log2 fold change); higher = more stays soluble; pooled small domains, quantitative proteomics
Settings: stress: pH 4
Summary of the method: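 Custom libraries of small protein domains were pooled and exposed to pH 4. High-throughput quantitative proteomics then measured the log2 fold change in the amount of each domain still soluble, with higher values meaning more stayed soluble. This soluble-fraction fold change stands for aggregation propensity.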

Row | Sequence | soluble fraction (log2)
1 | HMQGENDVTIDPKKLTIGDLAKEISKIEDSEELNNILVAEKEGKGRKGAINAITERIENVSGGTG | 0.22
2 | HMQGLIGEQKAIQIALSRVPGAKPEHVRELKLDYDDGMQLYEGEIFYNFREYEFEINAVTGEVVGWEI | -0.839
3 | HMQHRSRALHLQEELVRRYYDQAIAPFMIFWEMKANVTLDQLKELRAVVSPSLNEHPYTKQLDEYIRLAE | -0.275
4 | HMQIEQVDYGTFMTMIDDKKIDKVEIKDNQILFIGKDDNKKYKTGIVQDPQLAERLHASGAVFSQDI | -0.158
5 | HMQIIGEQNQKDFIALFGAILRMRNLLLSFDEFKGNELISERDLQDYLGRYQDLRDEWRNKRRER | -0.654
6 | HMQINDSSVVQKAVNDVIDQNSKAVSDYWDGKEGAAKFLMGQVMKLTRGQANPDLANQLILTRLQQERV | 0.182
7 | HMQISDEAALLAIVDRVIADNQGPLANYLGGKQSLLGWFVGQVMRATRGQAIPAVVNRLVGERLAAQREE | -0.278
8 | HMQISDESQLREVVSKILEENEQSVIDYKNGKTRAMGFIIGQVMKATRGKANPQLVNEIVKEMLDE | -0.137
9 | HMQISDTASIQEIAKEIIKSNPKAVEDYKKGKENALQFLVGQLMTKTKGTVHPGAARTILGDILK | -0.205
10 | HMQISDTSELEAVVQDILKANMDVVAKIKAGKTNSANFLMGQVMKLTKGRAKPDTVLQLILDAVKQ | -0.374
11 | HMQISLAAARVNAGLTQEEVAKAMKVGKQTIVSWEKGNSEPKMSQSRELSELYKIPLDYIFYP | 0.138
12 | HMQITDSGAIETIIDKIIADNPGQVTQYLSGKDKVFGFFVGQTMKASQGKANPAEVNKILQEKLK | -0.029
13 | HMQITQSSEPIDVSALRLGMFIHLEGGWLSHPFPRSSFKITSEDQLVTLRSLGISVLRWSPELSDPE | -1.46
14 | HMQIVPVDYSTFMQSIDDKTVDHVEIQSNQILYTVKDDHKKYKTGIMNDPTLAQRLMESGATFTQD | 0.185
15 | HMQKAEQIGSLLREKRKSMGLTQDELAQQVEVRRQTLADLELGKNVGSHLLIKVMEHLGVGFDLL | -0.962
16 | HMQKEIKVPDVANMALSEAVEKLQNEGFKVADEQKEVSSDEIEEGKVVKTSPVAGTKKTKGSEITIYISSG | 0.22
17 | HMQKFLEATGENRDAAVENALEQLGLERDDVSVEVLEIGKKGFLGIGATPARVRVTYEAPDI | -1.51
18 | HMQKKEVTVPEVRSKSLKEAAQILSEQNLKYETEPVNVENPDMVVIDQFPKPGGKISEQSVIILYLR | 0.146
19 | HMQKLNIEEQIVYDIIFKNKELSANEIQIKSGIKTSILNALLINLEIKQYIKLKFGNFYEIK | -1.63
20 | HMQKMPEMQILPNGKVKLPDFSGINMRKAAELLQYGKLRLQPYGSGTAYQQKPAAGTEVDEGTVVEIWF | 0.189
21 | HMQKNFYQILGVDSKASPATINAAYERAKSRVIQSGLEDPDTMALLRDAWETLADPGDRAAYDESLAT | -0.0938
22 | HMQKPELLAPAGSLEKAKTAFKYGADAVYMGTSNLSLRSRVTVDDDELIKTIEYAHSINKKVYAALNIYAR | 0.134
23 | HMQKPWFYESSGQRKGGFSEQEMVGLITDGEITHGAIVWRNGLSDWTKLEQTELAAHLDKTA | -1.06
24 | HMQKRDQKKRANMLDSLKVGTRIVTIGGIFGEIAKIKDDRIRIKVAEDVEIWIRRAAVGTVIT | ≥ 0.43
25 | HMQKTPFEIMTIYKDQILEMLGKDLTATEISIVLKKKGEKVHPREIRKFQLQHYEEVQDMRKKWRE | -0.632
26 | HMQKWILVNKQGRLSGILDHRAFNTRESATAWFQRTSDISGGTIKIDDYYYVLKNEEYKLLKE | -1.34

Row | Sequence | soluble fraction (log2)
27 | HMQKYEDIINVTRERLQNKFYSQTVIPTDDDIYIWLDKVAILEEIKLSKEDRQMLFNLLKKEAT | -0.879
28 | HMQLGQMIVKLRKEQGLTQETFAKKFNVTRQTVSNWENEKSYPDLHTLVKISDEFHLSLDILLK | 0.272
29 | HMQLGSILAYKFPQFGGIDGAWQVRDDSNGTGPYIAFWDAKTIGRGMPTEDELTAWAQEYEA | -1.38
30 | HMQLPTPEDLKKRRNELGLTQSDLAKRAGVSQPLIARIESGDVDPRLSTVRKILDAFEEVEKEQQ | 0.0627
31 | HMQLSASQQQILNHAAVNTDGKLVWFPETLKGGARKKVLDSLFSRALITTDGTHWFVAAEGYEALGIP | -0.0982
32 | HMQLTDLSALEAIIKEVLAANPKSVEDYKSGKEKAFGSLVGQAMKATKGKANPETVNSLLRKNLN | -0.0162
33 | HMQLTDSDFTRLYTYVKNSYGIDLSKKKQLISSRLTNMLIQQGYRDFTQYTDEIISGKNPEMVSAMLNRLT | 0.0695
34 | HMQLTPAQHAILAKAIHSSDGKIEWFPDNVKGGARKKVLEGMFNRALITPDGEGWRIAAEGYDALGMPRP | 0.165
35 | HMQLVGSSAAVLIPAPAGGLGKIRLEFRGQTIDLIAKATDGGALIEGGAVTIVDVRDGQADVSV | -0.329
36 | HMQMMDATLKIPPSMGKLRGTLYELNSVTSEDVDENGQLALHVRLSSVDWQRLKKRFDSNLDELIVQKN | -0.427
37 | HMQMPLTMATMGEVNKIVKVGGNEETRRFLANLGFVAGAEVVVLSKIGGNVIVNVKDSRVAVNEDMARHIM | -0.692
38 | HMQMSDTAAIGKIVDEVFAENPAALEDYAKGKTNVVDWLTGQVMKKSRGQANPGIASELVQKRLADF | 0.101
39 | HMQMSDTGAIEAMVKEALDENPQAIEDFKNGKGKALGFLMGQVMKKSKGQANGGIVNKLIKEELQKRIG | 0.315
40 | HMQMTKSEFLDALRRALNGNMAAASVDDNIRFYDSYFYTEETKGRSEAEILSELGDPRILARTLIDAAD | -0.382
41 | HMQNEIQQLAIDLIARAHKSGASDIHIVDTGTYTRIKFRVLGLLREDSQMEAETGRQMISTIYGILG | -0.19
42 | HMQNEKLSYFVTETIVTERADLFITKKFPQFSRSQIQKLINSGNITINSNPIKASTEIINKDNIEITIPV | -0.814
43 | HMQNESGLFTMSDLWEAGLMGSENASRKRAAVGAFLGIGFGNGKQFLKRLNHFGVTKEEWESALEQLGE | -0.447
44 | HMQNEVMPYSTFLSEVNSGNVTKVKIDHEQLTGTLKSGKQFTTYILDAATLPSIVAEKGVEVEVVPP | 0.195
45 | HMQNGNYVVQRQDSLWSIAARISGQTHQPIGEVMNHIKALNEHAFVGGNVNRLRTGTNLNLG | 0.125
46 | HMQNKRQEQLLALLAERRDYMTSRQLAEILQVSDRTIRSDVEAINRRSSPPPIESNVRQGYRLNPEA | -0.0908
47 | HMQNNIEFTVLEEDAQKRLDVLLSEKTALSRSASASLIEEGGVLVNGRKEPKKYKPVRGEIITAILPE | -0.549
48 | HMQNNTIAFSKFLQEVDNGRVVQVEIQGNNINGILSDGSKFNTYSPNYPALVEKLSEKNVNIVASPV | 0.385
49 | HMQNPDHLLALAAAAQAAIELGRPDEAEAYYRHLVEVYGVEMASQKPEYLDHSGITNDLRNVAEGFLVG | -1.32
50 | HMQNRIVNTTQGLAADKRGLLVADETGHTTRPGIFASGDVVNGARTVVEAVAHSKIVAESMHQYMQ | ≥ 0.43
51 | HMQNSLKAFRVKRGLTTSALSRLTNGEFSTSRISNYETGVRALTIDAAKKLAPHLGASPAQLLNL | 0.371
52 | HMQNSPVFAASDIEDIRVGMTVEHQRFGQGRVMSIEGNGPNKKTTVLFEGIGEKQLLLQYAKLKIV | -0.242

Row | Sequence | soluble fraction (log2)
53 | HMQNYLLFEEAKNIVNTLNLTNEKDWSEFIKKDFTYKNQIPIFPNQYYKHKGWVDWNDWLGINK | -1.62
54 | HMQNYTTIIGVIELRLNDISYDNVRKRYHIGRSGITLIMDRYRDSGLSLEDLKQMTPEKVVDLFYPR | 0.0145
55 | HMQPAALEAQVIKLVRLHAPIKARQLATILANEFGQHVDRSTVNSLLYQLRAQGKVAQNAAYQWSLT | -0.0984
56 | HMQPEKELAPLIGQRVSVRLHDGDGGYRDLLGELESPDSIRKKNGEIAFFDPAKIAALRVVV | 0.326
57 | HMQPGDRVDALIVGVSGEHVFLDVGGKSEGVMAAAELRNEAGELSAAEGDRVQVYLLSNRNGELIFTA | -0.283
58 | HMQPHLSADEEHLLKILGSDTMHIDALVKRSTLETSNALAALAFLEMKGLVKNIGNMHYIRTYR | -0.518
59 | HMQPIAVHIGTENPMKSLSDLSVVRAQFTSGGRVIGSVAVLGPTRMQYSRIVGMMRFMQQRLDLLLKG | -0.0772
60 | HMQPKKLNMYYDYVRQLLESHPYLSAAQIEDRLKEEFTELPMVHSKTVFNFVENIRLQHGINKHA | 0.0853
61 | HMQPLRQGDFVTSEVVKVQDGTAVLRTAQGTLLSASLTGNLGLLPGDRVETVVVEASPGRFVLRVLDIIR | -0.266
62 | HMQPPLTPRELGVLQWAAEGKTTRDTSAILQIHQRTVEMHLKSAREKLDALNTTHAVARALAHGFILPPS | 0.102
63 | HMQPPVDGNEIMEIFGIKGSPVIGVIKSTIKNAILDGIIAPNDREAALELMFRIADENGLKPVVTQTQ | -0.855
64 | HMQPRYMLIKTAILDAIERGEMKPGSQVPSENQLAQQHNVSRMTARRALSEMVDDGILMRSQGIGTFVSD | -0.591
65 | HMQPSFFEMIRMVESYIKQHFENVGNEFPEIARAIYYGIEEERNIYGTASREDMEELLDEGIPILPVP | -0.937
66 | HMQPVEHLPTTDPLTTSAASEHERYEKVRWWLEEMQRTYETGDEVRAERIRLSLIEQMYKWEGE | -1.09
67 | HMQPYTYNPNFLSDYRAYSLGIPLEAYDKLVQFRASGSFVNSMSDFQKITGVSDSLLAVLHSKFRYPK | -0.602
68 | HMQQELEEMESGNLVRTAIDSLPINQRTAFILSAYEELPIKEIASIMNRSEGAVEQLLQRAKMNLKKKIK | -0.0659
69 | HMQQLTDRELEVLRLLAAGLSNNKIGEKLYISATTAKFHVSNIMRKLEVSRRAEAVYAASKRGL | -0.587
70 | HMQQLTQRELTLLRLLANGYNNRQIAEQLQLAESTVKNNLSALFQKIGVRDRTQAVLFAISQGLVP | -0.462
71 | HMQQNDMTELRALAEKIISENDSVINDYKSGQGSALQFLIGQAMKETKGSANPQVISEIFTDLL | -0.548
72 | HMQQPIPGEAYLTRRPGSDHFQIAFTIDGHRVRESSGTSDKVAAAALAQKRYEEVWREIKLGEK | -0.0232
73 | HMQQPVAYSEFVQSVNDRQIREAQIQGERIVATDNNGNRMTVIWPENDTKLLDELVQNGVLTSIQE | -0.675
74 | HMQQVDWGSVFGDFGTMFKDQLQPTIDRLRRMAQSDTFRQSSLEEQQILYSLIEKLERSGTA | -2.1
75 | HMQQVIEGLDSDRDFITVPEAIALFAVGRQTLYHYIRSGKIPSVNLGQRLTRLSKKQLGELFPLR | -0.287
76 | HMQRGRTFSIVLNWKGRLLSTQMFFPQFTRPTKEQVTFEINKVYPGAMVYYYNPIEKDPSQPLV | 0.0658
